The source of these data is patent publication US20140275490A1 (Astellas, published 2014).

One may read the EC50 as the midpoint of the concentration-response curve.

Test [1] concerns the target T1, human IL-23R-mouse Fc fusion protein (human; mouse, UniProt Q5VWK5 24-353).
T1 construct: Expressed in FreeStyle 293 cells, purified; immobilized on the ELISA plate at 500 ng/mL; also called human IL-23R-Fc fusion protein; not shown: Fc region of mouse immunoglobulin (IgG2a) as encoded by the vector pFUSE-mIgG2A-Fc2 (InvivoGen); limits and any linker r
T1 sequence: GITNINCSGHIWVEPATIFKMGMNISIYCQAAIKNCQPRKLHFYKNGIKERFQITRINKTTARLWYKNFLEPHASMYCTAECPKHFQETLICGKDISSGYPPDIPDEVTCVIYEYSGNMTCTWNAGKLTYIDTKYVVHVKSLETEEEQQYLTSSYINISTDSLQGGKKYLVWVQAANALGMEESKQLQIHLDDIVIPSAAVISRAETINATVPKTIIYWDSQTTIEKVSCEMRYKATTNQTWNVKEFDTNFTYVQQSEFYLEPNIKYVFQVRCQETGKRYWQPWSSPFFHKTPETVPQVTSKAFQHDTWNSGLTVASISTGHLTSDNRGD
Description: antigen ELISA, human IL-23R-Fc immobilized, HRP anti-mouse Ig, chemiluminescence. As to the method:
(§1) The present inventors used an antigen ELISA to measure the antigen-specific binding activity of the antibody. The human or monkey IL-23R-Fc fusion protein was immobilized onto a Maxisorp 384-well plate (Nunc, Inc.) at a concentration of 500 ng/mL. A blocking agent (Blocking One; Nacalai Tesque, Inc.) was added thereto and allowed to stand at room temperature for 1 hour, followed by washing twice with a wash buffer [TPBS: a phosphate buffered saline (PBS) containing 0.05% Tween-20], and the purified antibody samples were suitably serially diluted and added thereto. Incubation was performed at room temperature for 1 hour, followed by washing four times with TPBS, and HRP-rabbit anti-mouse Ig antibody (DAKO) which was 2000-fold diluted with a dilution buffer was added. Incubation was performed at room temperature for 1 hour, followed by washing four times with a wash buffer. A BM-chemiluminescence ELISA substrate (POD) (Roche Diagnostics), which is a reagent for detecting chemical luminescence, was added, and the amount of chemiluminescence was measured with an EnVision counter (Perkin Elmer). Each antibody was tested in duplicate and the EC50 was analyzed by curve fitting. In this test, a fusion antibody obtained by replacing the Fc region of the known humanized anti-human IL-23R antibody hum20D7 (patent document 1) with the mouse Fc region (hereinafter referred to as hum20D7-mFc) was used as a comparative antibody. Also, the reason why the hum20D7 was fused with the mouse Fc region to prepare a fusion protein was to use anti-mouse Ig antibody as secondary antibody, and the mouse Fc region could be recognized by the anti-mouse Ig antibody, thereby rendering it possible to measure activity.
(In general: An ELISA detects its analyte on a solid surface through an enzyme-linked reagent.)

The target in test [2] is T2, monkey IL-23R-mouse Fc fusion protein (monkey; mouse).
T2 construct: extracellular domain; also called monkey IL-23R-Fc fusion protein
As to the kind of experiment: antigen ELISA, monkey IL-23R-Fc immobilized, HRP anti-mouse Ig, chemiluminescence. As to the method: as §1

B1: 32-36 (chimeric) (antibody, V domains shown)
VH: QVQMVQSGAEVKRPGASVKVSCKVSGYTLNELGIHWVRQAPGKGLEWMGGFDPEHGKIIYAQRFQGRLTMPEDTSTDTAYMELSSLTSEDTAVYYCATVAAPLDYWGQGTLVTVSS
VL: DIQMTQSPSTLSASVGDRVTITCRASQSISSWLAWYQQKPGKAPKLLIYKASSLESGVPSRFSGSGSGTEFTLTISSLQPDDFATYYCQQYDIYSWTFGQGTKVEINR
On to B1, for which the EC50 was found to be 0.023 µg/mL in test [1] and 0.028 µg/mL in test [2].

B2: 32-28 (chimeric) (antibody, V domains shown)
VH: QVHLVQSGTEVRKPGASVKVSCKVSGYTLNELAIHWVRQAPGKGLEWMGGFDPEHGEIIYAQRFQGRVTLPEDTSTDTAYLDLFNLRSEDTAVYFCATEAAPFDYWGQGTLVIVSS
VL: DIQMTQSPSTLSASVGDRVTITCRASQSLSSWLAWYQQKPGKAPKLLIYKASSLESGVPSRFSGSGSGTDFTLTISSLQPDDFATYYCQQYDIYPRTFGQGTKVEIKR
As to B2, the results for the EC50 in test [1] and in test [2] were 0.018 µg/mL and 0.024 µg/mL, respectively.

B3: 34-58 (chimeric) (antibody, V domains shown)
VH: QVHLVQSGTEVRKPGASVKVSCKVSGYTLNELAIHWVRQAPGKGLEWMGGFDPEHGEIIYAQRFQGRITLPEDTSTDTAYMDLVNLRSEDTAVYFCTTEAAPFDYWGQGSLVIVSS
VL: DIQMTQSPSTLSASVGDRVTITCRASQSLSNWLAWYQQKPGKAPKLLIYKASSLESGVPSRFSGSGSGTDFTLTISGLQPDDFATYYCQQYDIYPRTFGQGTKVEIKR
For B3, the EC50 was determined as 0.017 µg/mL in test [1] and 0.013 µg/mL in test [2].
